In one assay the target is HLA-B*44:02. Briefly: IEDB peptide-MHC binding, purified MHC/competitive/radioactivity; filed as Kd, often an IC50 or EC50 that approximates it; ≥ and ≤ were set here for values at or beyond the usual limits of such assays.
The next assay has as its target HLA-B*44:03. The assay is described as above.
For a further assay, the target named is HLA-B*40:01. Described as above.
Another assay deals with HLA-A*32:01. The assay is described as above.
A further assay concerns the target HLA-B*08:01. The description is as above.
A further assay concerns the target HLA-A*01:01. The description is as above.
Another assay has as its target HLA-A*30:01. Described as above.
The target of a further assay is HLA-A*23:01. Described as above.
For another assay, the target named is HLA-A*29:02. Described as above.
In assay [1] the target is HLA-A*24:02. The assay is described as above.
In a further assay the target is HLA-A*33:01. The description is as above.
The next assay deals with HLA-A*31:01. The description is as above.
The target in another assay is HLA-A*68:01. The assay is described as above. Conditions: source organism: Vaccinia virus WR.
The target in another assay is HLA-A*03:01. The description is as above. Conditions: source organism: Vaccinia virus WR.
The next assay concerns the target HLA-A*11:01. The assay is described as above. The settings on record: source organism: Vaccinia virus WR.
Another assay has as its target HLA-A*30:02. The assay is described as above. The settings on record: source organism: Dengue virus 4 Philippines/H241/1956.
A further assay has as its target HLA-B*51:01. The description is as above. Conditions: source organism: Dengue virus 1 Brazil/97-11/1997.
The target of another assay is HLA-A*26:01. The description is as above. Conditions: source organism: Dengue virus 1 Brazil/97-11/1997.
Another assay deals with HLA-A*02:01. Briefly: IEDB peptide-MHC binding, purified MHC/competitive/fluorescence; ≥ and ≤ were set here for values at or beyond the usual limits of such assays. The settings on record: source organism: Vaccinia virus WR.
In assay [2] the target is HLA-A*24:02. Described as above. The settings on record: source organism: Vaccinia virus WR.
The mark [3] stands for this setting: source organism: Dengue virus 2 Jamaica/1409/1983.
Setting [4] is: source organism: Dengue virus 4 Philippines/H241/1956.
[5] abbreviates: source organism: Vaccinia virus WR.
The mark [6] stands for this setting: source organism: Dengue virus 1 Brazil/97-11/1997.
Where [7] appears, read: source organism: Dengue virus 4 Dominica/814669/1981.
[8] abbreviates: source organism: Mammarenavirus caliense.
[9] abbreviates: source organism: Dengue virus 2 Peru/IQT2913/1996.
Where [10] appears, read: source organism: Mammarenavirus guanaritoense.
Setting [11] is: source organism: Dengue virus 3 Martinique/1243/1999.

What is called Kd is the free concentration of one partner at which half of the binding sites on the other are occupied at equilibrium, for simple one-to-one binding. With TEMGRLPTFM, the Kd with HLA-B*44:02 (setting [3]) came out at 11.6 nM; with HLA-B*44:03 (setting [3]), 167 nM.
For the sequence QEVPFCSHHF, the Kd turned out to be 4870 nM with HLA-B*40:01 (setting [4]), 12.2 nM in the assay with HLA-B*44:02 (setting [4]) and 180 nM with HLA-B*44:03 (setting [4]).
Consider EEYVDYMPV, for which the Kd with HLA-B*40:01 (setting [4]) came to 190 nM.
Regarding KETACLGKSY, the Kd with HLA-B*44:03 (setting [3]) is 23.6 nM.
KITGNLVQI: the Kd with HLA-A*32:01 (setting [4]) was determined as 2710 nM.
In the case of RVYVGNVAW, the Kd with HLA-A*32:01 (setting [5]) worked out at 1.08 nM.
On to KKMIRPQPM, for which the dissociation constant Kd in the assay with HLA-B*08:01 (setting [6]) amounted to 188 nM.
As to REEEEAGVL, the Kd with HLA-B*40:01 (setting [3]) came out at 3.23 nM.
In the case of RLGYILEEI, the dissociation constant Kd with HLA-A*32:01 (setting [7]) stood at 1110 nM.
With MTDTTPFGQ, in the assay with HLA-A*01:01 (setting [4]), the Kd came to 3770 nM.
Turning to RVRNIIASI, the equilibrium dissociation constant (Kd) with HLA-B*08:01 (setting [5]) was 21.7 nM; with HLA-A*32:01 (setting [5]), 1.04 nM; with HLA-A*30:01 (setting [5]), 0.103 nM.
As for PYENLLYKI, the Kd with HLA-A*23:01 (setting [8]) was 9.86 nM; with HLA-A*29:02 (setting [8]), at least 52400 nM; with HLA-A*24:02 [1] (setting [8]), 253 nM.
With NTSANLSLA, in the assay with HLA-A*01:01 (setting [4]), the equilibrium dissociation constant (Kd) amounted to 1350 nM.
For the sequence TELRYSWKTW, the values for the Kd with HLA-B*44:02 (setting [9]), with HLA-B*44:03 (setting [9]) and with HLA-A*32:01 (setting [9]) were 7.9 nM, 33 nM and 2420 nM, respectively.
For QMQRKHGGML, in the assay with HLA-B*08:01 (setting [6]), the dissociation constant Kd was 436 nM.
As for CETCVYNMM, the equilibrium dissociation constant (Kd) in the assay with HLA-B*40:01 (setting [3]) was found to be 52.1 nM; in the assay with HLA-B*44:02 (setting [3]), 92.2 nM.
As for MFGGVSWMIR, the Kd with HLA-A*33:01 (setting [7]) stood at 14.8 nM; in the assay with HLA-A*31:01 (setting [7]), 7.52 nM; with HLA-A*32:01 (setting [7]), 1430 nM.
For the sequence ILLNNPNLF, the equilibrium dissociation constant (Kd) with HLA-A*23:01 (setting [10]) was determined as 423 nM; in the assay with HLA-A*29:02 (setting [10]), 46.7 nM; in the assay with HLA-A*24:02 [1] (setting [10]), 793 nM.
With LVKESMASLK, the equilibrium dissociation constant (Kd) with HLA-A*68:01 was 0.437 nM; with HLA-A*33:01 (setting [5]) it was 394 nM; in the assay with HLA-A*31:01 (setting [5]), 64.5 nM; in the assay with HLA-A*03:01 it was 4.1 nM; in the assay with HLA-A*29:02 (setting [5]) it was at least 53600 nM; in the assay with HLA-A*11:01, 11.3 nM.
For FQPHQLWTTL, the Kd with HLA-A*32:01 (setting [6]) turned out to be 761 nM.
REIVVPCRNQ: the equilibrium dissociation constant (Kd) with HLA-B*40:01 (setting [6]) came to 228 nM.
PSSVAARGY: the Kd in the assay with HLA-A*30:02 amounted to 3230 nM; with HLA-A*01:01 (setting [4]), 200 nM.
Consider SEMIIPKNFA, for which the Kd with HLA-B*40:01 (setting [3]) turned out to be 8440 nM; with HLA-B*44:02 (setting [3]), 12 nM; with HLA-B*44:03 (setting [3]) it was 25 nM.
KTWGKAKML: in the assay with HLA-A*32:01 (setting [3]), the Kd turned out to be 39.2 nM.
With SMLSIFNIV, in the assay with HLA-B*08:01 (setting [5]), the Kd is at least 77700 nM.
As to IAFLRFLAI, the Kd came out at 9.53 nM with HLA-B*51:01 and 1.26 nM with HLA-B*08:01 (setting [6]).
In the case of HMLEFLYSF, the Kd with HLA-A*32:01 (setting [5]) is 0.296 nM.
YENLKYTVII: the Kd with HLA-B*40:01 (setting [11]) turned out to be 2.82 nM.
ETWALRHPGF: the Kd with HLA-A*01:01 (setting [6]) was at least 41200 nM; with HLA-A*30:01 (setting [6]), 1900 nM; in the assay with HLA-A*26:01 it was 666 nM.
For the sequence KTWMINIMI, the Kd with HLA-A*32:01 (setting [5]) is at least 77800 nM.
For the sequence GEKKKLRPRW, the figures for the equilibrium dissociation constant (Kd) with HLA-B*44:02 (setting [11]) and with HLA-B*44:03 (setting [11]) were 342 nM and 2600 nM, respectively.
With GFKKRVNVF, the Kd in the assay with HLA-B*08:01 (setting [5]) amounted to 110 nM.
With KSYAQMWQLM, the dissociation constant (Kd) with HLA-A*32:01 (setting [6]) came to 89.9 nM.
With SPKERLPYI, the Kd in the assay with HLA-B*08:01 (setting [5]) turned out to be 1040 nM.
FFKCFRYVF: in the assay with HLA-B*08:01 (source organism: Vaccinia virus Copenhagen), the Kd came to 10.9 nM.
As a reminder, the IC50 is the concentration needed to halve the response being measured. As to NVEYRFLVI, the half-maximal inhibitory concentration (IC50) with HLA-A*02:01 is at least 144000 nM; in the assay with HLA-A*24:02 [2], 13700 nM. In the assay with HLA-B*08:01 (setting [5]), the Kd was 235 nM.

Source of the values: the Immune Epitope Database (IEDB).
